The target of one experiment is T1, human GITR-Fc (human, UniProt Q9Y5U5 26-162).
T1 construct: also called recombinant hGITR; wild type human GITR-Fc
T1 sequence: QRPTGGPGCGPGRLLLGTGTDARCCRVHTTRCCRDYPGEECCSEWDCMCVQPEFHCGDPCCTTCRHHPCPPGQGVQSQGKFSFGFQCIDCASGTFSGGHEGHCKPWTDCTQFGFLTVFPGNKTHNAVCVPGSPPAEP
Briefly: BLI Octet RED384, ABP on AHQ sensor, 100 nM antigen, single concentration. (BLI is a label-free optical method that tracks binding on a fibre tip over time.)

For the next experiment, the target named is T2, cyno GITR-Fc (cynomolgus monkey).
T2 construct: also called cGITR; cynomolgus GITR
T2 chain: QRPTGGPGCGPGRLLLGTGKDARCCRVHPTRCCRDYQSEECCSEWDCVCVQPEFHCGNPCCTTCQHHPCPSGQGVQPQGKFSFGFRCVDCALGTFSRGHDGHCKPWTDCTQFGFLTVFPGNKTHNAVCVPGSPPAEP
The experiment is described as above.

The target in experiment [1] is T3, human GITR expressed on cells (human, UniProt Q9Y5U5 26-241).
T3 sequence: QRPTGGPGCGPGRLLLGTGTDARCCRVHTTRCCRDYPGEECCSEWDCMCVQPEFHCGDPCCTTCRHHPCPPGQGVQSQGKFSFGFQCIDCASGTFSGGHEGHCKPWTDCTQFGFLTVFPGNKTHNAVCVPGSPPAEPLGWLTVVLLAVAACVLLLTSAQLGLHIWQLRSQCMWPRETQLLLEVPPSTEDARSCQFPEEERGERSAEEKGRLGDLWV
Kind of experiment: cell-based or functional assay.

Experiment [2] addresses T4, cynomolgus monkey GITR expressed on HT1080 cells (cynomolgus monkey).
T4 chain: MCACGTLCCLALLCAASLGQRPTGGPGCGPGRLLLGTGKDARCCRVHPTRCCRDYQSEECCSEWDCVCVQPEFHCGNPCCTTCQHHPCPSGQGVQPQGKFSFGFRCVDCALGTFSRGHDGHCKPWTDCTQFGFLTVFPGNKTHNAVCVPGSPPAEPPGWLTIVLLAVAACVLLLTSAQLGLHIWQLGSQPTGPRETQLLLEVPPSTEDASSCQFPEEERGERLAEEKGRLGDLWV
Briefly: cell-based or functional assay.

The target of experiment [3] is T3, human GITR expressed on cells. Briefly: cell-based or functional assay. This is another data set of the same source.
Experiment [4] shares this target. Kind of experiment: cell-based or functional assay. This is another data set of the same source.
Experiment [5] addresses T4, cynomolgus monkey GITR expressed on …. Briefly: cell-based or functional assay.

Residue numbers refer to the chain shown, from its start. Names and notes keep the numbering of the source.

A word on the Kd: it is the constant that tells how readily two partners part at equilibrium.
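Throughout, for Kd: association and dissociation each tracked over 180 s, with dissociation run in antigen-free buffer.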
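Throughout, for result: association and dissociation each tracked over 180 s, with dissociation run in antigen-free buffer.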

Procedure for cyno GITR-Fc: (§1) The sensors were quenched by dipping into an unrelated human IgG1 antibody to prevent non-specific binding of GITR-Fc antigens to the sensor. The sensors were equilibrated in assay buffer for 30 minutes. Baseline was established by dipping the sensors into assay buffer for 60 seconds. Association was monitored for 180 seconds in 100 nM of recombinant antigens, and dissociation was followed for 180 seconds in buffer alone. KD was determined using the kinetic function of the FORTEBIO® Analysis Software using a 1:1 binding model.
Procedure for human GITR-Fc: as §1

B1: ABP39 (antibody, human IgG1, kappa, N297A, V domains shown)
VH: QVQLQESGPGLVKPSETLSLTCAVSGYSISSGAGWGWIRQPPGKGLEWIGLIVHSGSTYYNPSLKSRVTISVDTSKNQFSLKLSSVTAADTAVYYCVLESVRGYGDYGGHHAFDIWGQGTMVTVSS
VL: DIQMTQSPSSLSASVGDRVTITCRASQSISSYLNWYQQKPGKAPKLLIYAADSLQSGVPSRFSGSGSGTDFTLTISSLQPEDFATYYCQQEYNTPPTFGGGTKVEIKR
notes: IgG1 N297A, bivalent; also called non-TM ABP corresponding to ABP6
For B1, the Kd in the experiment with human GITR-Fc is 0.7 nM; with cyno GITR-Fc, 8.2 nM. The “Average EC50 in human HT1080 (IL-8 induction)” value (shortened to “Average EC50 in human HT1080”) in experiment [1] amounted to 0.44 nM. In addition, the “Average EC50 in cynomolgus HT1080 (IL-8 induction)” value (“Average EC50 in cynomolgus HT1080” below) in experiment [2] was determined as 2.3 nM.

B2: ABP41 (antibody, human IgG1, kappa, N297A, V domains shown)
VH: B1 VH with G32E, A33Y, G34M, V53Y, S57K, V97A, L98R, S100A, V101D
VL: B1 VL with R24G, S31T, A50S, D52S, Q55E, T97S
notes: IgG1 N297A, bivalent; also called non-TM ABP corresponding to ABP8
For B2, the dissociation constant (Kd) amounted to 2.3 nM in the experiment with human GITR-Fc and 6.9 nM with cyno GITR-Fc. Further, the “Average EC50 in human HT1080” value in experiment [1] stood at 0.44 nM. In addition, in experiment [2], the “Average EC50 in cynomolgus HT1080” value is 2 nM.

B3: ABP35 (antibody, human IgG1, kappa, N297A, V domains shown)
VH: B1 VH with A33L, L51G, V53Y, H54E, V97A, L98H, S100R
VL: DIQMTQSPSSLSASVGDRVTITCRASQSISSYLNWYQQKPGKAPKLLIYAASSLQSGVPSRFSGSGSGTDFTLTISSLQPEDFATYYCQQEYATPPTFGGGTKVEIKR
notes: IgG1 N297A, standard bivalent format; also called ABP35 IgG1; non-TM ABP corresponding to ABP1
Consider B3, for which the equilibrium dissociation constant (Kd) with human GITR-Fc worked out at 1.5 nM; with cyno GITR-Fc, 5.7 nM. In addition, in experiment [1], the “Average EC50 in human HT1080” value was 0.88 nM. Besides, the “Average EC50 in cynomolgus HT1080” value in experiment [2] turned out to be 2 nM.

B4: ABP48 (antibody, human IgG1, kappa, N297A, V domains shown)
VH: B1 VH with G32E, A33Y, G34M, V53Y, S57K, V97A, L98R, E99D, V101G
VL: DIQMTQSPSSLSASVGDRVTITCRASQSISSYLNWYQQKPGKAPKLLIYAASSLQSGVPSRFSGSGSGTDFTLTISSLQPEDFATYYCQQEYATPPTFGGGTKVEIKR
notes: IgG1 N297A, H1H2-optimized, non-TM
As for B4, in experiment [3], the “EC50 in human HT1080 (IL-8 induction), n = 2” value came out at 0.8 nM. In the experiment with human GITR-Fc, this molecule yielded a dissociation constant (Kd) of 14.8 nM. In the experiment with cyno GITR-Fc, the binding result is given as “no binding (tested: 100 nM)”.

B5: ABP38 (antibody, human IgG1, kappa, N297A, V domains shown)
VH: B1 VH with L46P
VL: B1 VL with Q27K, S30D, D52S
notes: IgG1 N297A, bivalent; also called non-TM ABP corresponding to ABP4/5
In the case of B5, the Kd in the experiment with human GITR-Fc was 0.6 nM; with cyno GITR-Fc it was 11.1 nM. Besides, the “Average EC50 in human HT1080” value in experiment [1] worked out at 0.33 nM. In experiment [2], the “Average EC50 in cynomolgus HT1080” value was determined as 14.3 nM.

B6: ABP37 (antibody, human IgG1, kappa, N297A, V domains shown)
VH: B1 VH
VL: B1 VL with D52S, Q55K, S56Y
notes: IgG1 N297A, bivalent; also called non-TM ABP corresponding to ABP3
As to B6, the equilibrium dissociation constant (Kd) was 0.7 nM with human GITR-Fc and 8.1 nM with cyno GITR-Fc. Besides, the “Average EC50 in human HT1080” value in experiment [1] was 0.19 nM. Also, the “Average EC50 in cynomolgus HT1080” value in experiment [2] was determined as 1.7 nM.

B7: ABP40 (antibody, human IgG1, kappa, N297A, V domains shown)
VH: B1 VH with G32E, A33Y, G34M, V53Y, S57K, V97A, L98R, S100A, V101D
VL: B1 VL with S30N, D52S, Q55D
notes: IgG1 N297A, bivalent; also called non-TM ABP corresponding to ABP7
Regarding B7, the Kd with human GITR-Fc worked out at 2.2 nM; with cyno GITR-Fc, 4.9 nM. Moreover, the “Average EC50 in human HT1080” value in experiment [1] turned out to be 0.34 nM. Also, in experiment [2], the “Average EC50 in cynomolgus HT1080” value stood at 1.1 nM.

B8: ABP13 (antibody, human IgG1, kappa, N297A, V domains shown)
VH: QVQLVQSGAEVKKPGSSVKVSCKASGGTFSRGAISWVRQAPGQGLEWMGGIIPIEGTAYYAQKFQGRVTITADESTGTAYMELSSLRSEDTAVYYCARQSDYGLPRGMDVWGQGTTVTVSS
VL: DIQLTQSPSSVSASVGDRVTITCRASQGISSWLAWYQQKPGKAPKLLIYGASSLQSGVPSRFSGSGSGTDFTLTISSLQPEDFATYYCQQASLFPPTFGGGTKVEIKR
On to B8, for which the figures for the dissociation constant (Kd) with human GITR-Fc and with cyno GITR-Fc were 5.5 nM and 6.4 nM, respectively. Besides, the “EC50 in human HT1080 (IL-8 induction)” value in experiment [4] amounted to 7.8 nM. Further, the “EC50 in cynomolgus HT1080 (IL-8 induction)” value in experiment [5] came to 15 nM.

B9: ABP11 (antibody, human IgG1, kappa, N297A, V domains shown)
VH: QVQLVQSGAEVKRPGSSVKVSCKASGGTFSSYYISWVRQVPGQGLEWMGGIIPVPGTANYAQKFQGRVTITADESTSTAYMELSSLRSEDTAVYYCARAGGGYARGDHYYGMDVWGQGTTVTVSS
VL: not shown
As for B9, the dissociation constant (Kd) was determined as 3.1 nM in the experiment with human GITR-Fc and 8.5 nM with cyno GITR-Fc. Also, in experiment [4], the “EC50 in human HT1080 (IL-8 induction)” value worked out at 3.9 nM. Moreover, the “EC50 in cynomolgus HT1080 (IL-8 induction)” value in experiment [5] is 21.6 nM.

B10: ABP12 (antibody, human IgG1, kappa, N297A, V domains shown)
VH: B9 VH with R13K, V40A, G44R
VL: not shown
As for B10, the equilibrium dissociation constant (Kd) with human GITR-Fc turned out to be 2.8 nM; with cyno GITR-Fc it was 7.9 nM. In experiment [4], the “EC50 in human HT1080 (IL-8 induction)” value came out at 3.5 nM. Moreover, the “EC50 in cynomolgus HT1080 (IL-8 induction)” value in experiment [5] came out at 28.4 nM.

B11: ABP14 (antibody, human IgG1, kappa, N297A, V domains shown)
VH: QVQLVQSGAEVKKPGSSVKVSCKASGGTFSSYAISWVRQAPGQGLEWMGGIIPISGFTNYAQKFQGRVTITADESTSTAYMELSSLRSEDTAVYYCAREGGHYYSGWPYWGQGTLVTVSS
VL: EIVLTQSPATLSLSPGERATLSCRASQSVSSYLAWYQQKPGQAPRLLIYDASNRATGIPARFSGSGSGTDFTLTISSLEPEDFAVYYCQQRLVFPPTFGGGTKVEIKR
As for B11, the dissociation constant Kd turned out to be 2.8 nM with human GITR-Fc and 5.9 nM with cyno GITR-Fc. Besides, the “EC50 in human HT1080 (IL-8 induction)” value in experiment [4] turned out to be 0.6 nM. Besides, the “EC50 in cynomolgus HT1080 (IL-8 induction)” value in experiment [5] came out at 4.1 nM.

B12: ABP18 (antibody, human IgG1, kappa, N297A, V domains shown)
VH: QVQLVQSGAEVKKPGSSVKVSCKASGGTFVRYAISWVRQAPGQGLEWMGGIIPIFGEAQYAQKFRGRATITADESTSTAYMELSSLRSEDTAVYYCAREGYYYGALPYWGQGTLVTVSS
VL: B11 VL with R91H, L92S
As for B12, the figures for the Kd with human GITR-Fc and in the experiment with cyno GITR-Fc were 4 nM and 8.4 nM, respectively. In addition, the “EC50 in human HT1080 (IL-8 induction)” value in experiment [4] turned out to be 2.1 nM. Further, the “EC50 in cynomolgus HT1080 (IL-8 induction)” value in experiment [5] worked out at 13.2 nM.

B13: ABP15 (antibody, human IgG1, kappa, N297A, V domains shown)
VH: B11 VH with G44R
VL: B11 VL
Take B13: the figures for the dissociation constant Kd in the experiment with human GITR-Fc and with cyno GITR-Fc were 3.3 nM and 5.2 nM, respectively. Besides, the “EC50 in human HT1080 (IL-8 induction)” value in experiment [4] amounted to 0.6 nM. Besides, the “EC50 in cynomolgus HT1080 (IL-8 induction)” value in experiment [5] stood at 4.5 nM.

B14: ABP16 (antibody, human IgG1, kappa, N297A, V domains shown)
VH: B11 VH with R67K
VL: B11 VL
Take B14: the Kd came out at 2.9 nM with human GITR-Fc and 5.4 nM with cyno GITR-Fc. Further, the “EC50 in human HT1080 (IL-8 induction)” value in experiment [4] was determined as 0.6 nM. Besides, the “EC50 in cynomolgus HT1080 (IL-8 induction)” value in experiment [5] was found to be 3.8 nM.

B15: ABP17 (antibody, human IgG1, kappa, N297A, V domains shown)
VH: B12 VH with K63R, R65Q, A68V
VL: B11 VL with R91H, L92S
Regarding B15, the Kd with human GITR-Fc worked out at 4.2 nM; with cyno GITR-Fc, 4.6 nM. Moreover, the “EC50 in human HT1080 (IL-8 induction)” value in experiment [4] was determined as 5.3 nM. In addition, the “EC50 in cynomolgus HT1080 (IL-8 induction)” value in experiment [5] came to 8.4 nM.

B16: ABP36 (antibody, human IgG1, kappa, N297A, V domains shown)
VH: QVQLQESGPGLVKPSQTLSLTCTVSGGSISSGGAVWSWIRQHPGKGLEWIGGIAYSGSTYYNPSLKSRVTISVDTSKNQFSLKLSSVTAADTAVYYCADENVRGYGDYGGHHAFDIWGQGTMVTVSS
VL: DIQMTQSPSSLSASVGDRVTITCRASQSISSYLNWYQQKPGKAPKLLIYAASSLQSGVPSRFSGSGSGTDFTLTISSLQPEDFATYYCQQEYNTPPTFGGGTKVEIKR
notes: IgG1 N297A, bivalent; also called non-TM ABP corresponding to ABP2
For B16, the figures for the equilibrium dissociation constant (Kd) with human GITR-Fc and with cyno GITR-Fc were 1.4 nM and 7.5 nM, respectively. Besides, in experiment [1], the “Average EC50 in human HT1080” value stood at 0.58 nM. Besides, in experiment [2], the “Average EC50 in cynomolgus HT1080” value stood at 8.8 nM.

The values above are taken from US20210269542A1 (POTENZA THERAPEUTICS, published 2021).
